Values of other authors, collected in article PMC8894380.

Molecular target: PRPF8 Jab1 (Saccharomyces cerevisiae) (UniProt P33334)
Sequence (P33334 2148-2395): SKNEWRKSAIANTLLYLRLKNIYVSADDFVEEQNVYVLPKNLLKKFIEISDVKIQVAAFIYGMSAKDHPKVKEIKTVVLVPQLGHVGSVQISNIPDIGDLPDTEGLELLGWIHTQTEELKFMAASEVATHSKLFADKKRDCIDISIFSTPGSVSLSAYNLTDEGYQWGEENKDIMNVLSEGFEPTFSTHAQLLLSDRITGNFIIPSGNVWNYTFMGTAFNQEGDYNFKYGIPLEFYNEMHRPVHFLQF

Sequence of BRR2 helicase region (P32639 442-2163): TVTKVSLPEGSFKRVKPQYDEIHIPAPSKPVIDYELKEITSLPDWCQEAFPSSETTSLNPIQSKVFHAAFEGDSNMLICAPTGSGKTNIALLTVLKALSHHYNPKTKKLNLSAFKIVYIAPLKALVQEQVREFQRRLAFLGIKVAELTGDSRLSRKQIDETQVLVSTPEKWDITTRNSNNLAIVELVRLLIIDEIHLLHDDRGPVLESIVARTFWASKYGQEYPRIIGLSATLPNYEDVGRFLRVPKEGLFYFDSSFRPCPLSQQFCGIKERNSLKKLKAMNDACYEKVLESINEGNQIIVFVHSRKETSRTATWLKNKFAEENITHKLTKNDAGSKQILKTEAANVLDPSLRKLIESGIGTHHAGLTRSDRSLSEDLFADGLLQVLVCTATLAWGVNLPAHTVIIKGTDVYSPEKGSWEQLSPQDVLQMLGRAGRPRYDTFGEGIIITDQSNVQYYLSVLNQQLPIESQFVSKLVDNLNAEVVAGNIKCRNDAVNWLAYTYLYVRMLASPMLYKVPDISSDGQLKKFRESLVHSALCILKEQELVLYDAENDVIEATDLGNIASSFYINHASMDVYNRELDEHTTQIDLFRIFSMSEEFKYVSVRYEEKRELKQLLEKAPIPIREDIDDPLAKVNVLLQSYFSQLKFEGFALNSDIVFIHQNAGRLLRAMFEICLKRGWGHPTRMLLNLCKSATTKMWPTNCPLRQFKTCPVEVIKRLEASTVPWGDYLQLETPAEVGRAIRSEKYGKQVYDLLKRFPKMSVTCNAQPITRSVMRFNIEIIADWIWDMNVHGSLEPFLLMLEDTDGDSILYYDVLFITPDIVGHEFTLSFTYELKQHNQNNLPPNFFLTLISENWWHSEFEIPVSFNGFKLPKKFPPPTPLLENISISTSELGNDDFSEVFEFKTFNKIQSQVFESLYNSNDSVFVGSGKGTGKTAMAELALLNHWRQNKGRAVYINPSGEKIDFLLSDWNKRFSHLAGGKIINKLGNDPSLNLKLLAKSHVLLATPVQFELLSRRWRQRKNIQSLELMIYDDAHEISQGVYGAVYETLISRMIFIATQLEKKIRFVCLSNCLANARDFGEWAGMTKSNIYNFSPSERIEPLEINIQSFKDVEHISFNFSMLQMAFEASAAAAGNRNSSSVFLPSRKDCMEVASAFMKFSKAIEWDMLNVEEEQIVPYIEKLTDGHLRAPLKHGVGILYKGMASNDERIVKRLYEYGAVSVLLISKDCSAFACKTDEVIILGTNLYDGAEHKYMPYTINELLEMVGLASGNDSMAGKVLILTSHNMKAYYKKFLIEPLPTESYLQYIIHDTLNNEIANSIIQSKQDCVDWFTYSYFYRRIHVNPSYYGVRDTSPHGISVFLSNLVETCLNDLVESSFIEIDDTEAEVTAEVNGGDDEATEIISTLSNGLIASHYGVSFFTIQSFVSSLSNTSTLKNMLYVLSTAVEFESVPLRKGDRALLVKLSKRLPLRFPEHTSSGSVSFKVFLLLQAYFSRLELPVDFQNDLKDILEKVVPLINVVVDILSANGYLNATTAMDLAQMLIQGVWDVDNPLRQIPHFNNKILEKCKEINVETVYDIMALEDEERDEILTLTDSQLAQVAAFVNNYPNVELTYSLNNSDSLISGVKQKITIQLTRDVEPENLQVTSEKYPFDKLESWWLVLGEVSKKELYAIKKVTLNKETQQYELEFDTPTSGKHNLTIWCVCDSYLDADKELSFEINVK

Kd: 8 nM
Substance: BRR2 helicase region (from UniProt P32639)
